Consider one molecule from patent CN111303280A (INST MILITARY MEDICINE ACADEMY MILITARY SCIENCES PLA, dated 2020).

One test has as its target T1, SARS-CoV-2 S2抗原 (重组) (SARS-CoV-2, UniProt P0DTC2 686-1213).
T1 construct: domain: S2
Put plainly: ELISA, coated S2 antigen 2 μg/mL.

The target of another test is T2, SARS-CoV-2 RBD抗原 (重组) (SARS-CoV-2, UniProt P0DTC2 319-541).
T2 construct: domain: RBD
Put plainly: ELISA, coated RBD antigen 2 μg/mL.

The target in test [1] is T3, SARS-CoV-2 刺突糖蛋白S (重组S抗原) (SARS-CoV-2, UniProt P0DTC2 16-1213). Put plainly: ELISA, coated S antigen 2 μg/mL, HRP anti-human Fc.
Test [2] addresses T3, SARS-CoV-2 刺突糖蛋白S (重组S抗原). Put plainly: BLI (Fortebio Octet QKe), 4A8 captured on AHC sensors, S protein as analyte.

B1: 抗SARS-CoV-2全人源单克隆抗体4A8 (antibody, V domains shown)
VH: EVQLVESGAEVKKPGASVKVSCKVSGYTLTELSMHWVRQAPGKGLEWMGGFDPEDGETMYAQKFQGRVTMTEDTSTDTAYMELSSLRSEDTAVYYCATSTAVAGTPDLFDYYYGMDVWGQGTTVTVSS
VL: EIVMTQSPLSSPVTLGQPASISCRSSQSLVHSDGNTYLSWLQQRPGQPPRLLIYKISNRFSGVPDRFSGSGAGTDFTLKISRVEAEDVGVYYCTQATQFPYTFGQGTKVDIK
notes: also called 单抗4A8
For the molecule B1, the binding result with SARS-CoV-2 S2抗原 (重组) is given as “no binding (tested: 首孔9ug/ml)”. For the same molecule, the binding result with SARS-CoV-2 RBD抗原 (重组) is “no binding (tested: 首孔9ug/ml)”. For the same molecule, the EC50 in test [1] is 4.6 ng/mL. In test [2], this molecule showed an equilibrium dissociation constant (Kd) of 1 nM, an off-rate constant (koff) of 7.77e-05 s⁻¹ and a kon of 77500 M⁻¹ s⁻¹.
